Results from PMC12809509.

Target: Prebiotinylated FcγRI (Biotinylated Human CD64 Protein, His, Avitag) (human) (UniProt P12314)
Assay: SPR; Biacore T200; biotinylated FcγRI immobilised on a streptavidin SA chip (F-chip); single-cycle kinetics, OPD injected at 90, 30, 10 nM, 120 s contact, 900 s dissociation; running buffer HBS-EP 1x pH 7.4; double-referenced; 1:1 Langmuir fit; mean ± SD, n = 3

Chain of UniProt P12314 (P12314 16-292): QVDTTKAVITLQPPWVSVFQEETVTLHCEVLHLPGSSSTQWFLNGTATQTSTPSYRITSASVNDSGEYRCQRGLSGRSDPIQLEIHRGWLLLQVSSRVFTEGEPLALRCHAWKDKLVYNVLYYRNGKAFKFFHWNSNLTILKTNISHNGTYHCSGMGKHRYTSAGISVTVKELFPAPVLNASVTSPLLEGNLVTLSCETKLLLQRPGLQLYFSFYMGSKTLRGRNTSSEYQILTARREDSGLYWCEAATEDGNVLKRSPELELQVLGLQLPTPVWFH

**Q.** Which Kd does the source give for nivolumab (antibody) here?
**A.** 7.33 nM

**Q.** And the koff?
**A.** 0.00093 s⁻¹

**Q.** What about the kon of the same substance?
**A.** 127000 M⁻¹ s⁻¹
